T1: Abp1, P15891
T1 sequence (P15891 535-592, looked up): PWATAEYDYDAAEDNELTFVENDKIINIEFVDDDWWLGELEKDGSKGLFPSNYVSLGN

T2: Bbc1, P47068
T2 sequence (P47068 1-78, looked up): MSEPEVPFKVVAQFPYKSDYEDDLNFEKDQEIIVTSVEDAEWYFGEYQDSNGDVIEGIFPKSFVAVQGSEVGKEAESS

T3: Boi1, P38041
T3 sequence (P38041 1-86, looked up): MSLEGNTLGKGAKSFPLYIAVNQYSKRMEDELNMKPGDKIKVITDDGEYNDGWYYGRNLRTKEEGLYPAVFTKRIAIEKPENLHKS

T4: Boi2, P39969
T4 sequence (P39969 32-116, looked up): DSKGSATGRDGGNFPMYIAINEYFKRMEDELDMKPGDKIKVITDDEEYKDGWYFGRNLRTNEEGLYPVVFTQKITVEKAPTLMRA

T5: Bud14, P27637
T5 sequence (P27637 247-328, looked up): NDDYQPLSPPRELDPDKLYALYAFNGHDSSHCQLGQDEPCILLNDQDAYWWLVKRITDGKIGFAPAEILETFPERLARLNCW

T6: Bzz1-1, P38822
T6 sequence (P38822 478-572, looked up): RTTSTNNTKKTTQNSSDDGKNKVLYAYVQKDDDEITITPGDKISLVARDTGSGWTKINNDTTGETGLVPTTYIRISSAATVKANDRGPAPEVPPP

T7: Bzz1-2, P38822
T7 sequence (P38822 568-633, looked up): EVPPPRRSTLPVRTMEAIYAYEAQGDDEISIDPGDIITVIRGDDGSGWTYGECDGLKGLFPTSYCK

T8: Cdc25, P04821
T8 sequence (P04821 50-136, looked up): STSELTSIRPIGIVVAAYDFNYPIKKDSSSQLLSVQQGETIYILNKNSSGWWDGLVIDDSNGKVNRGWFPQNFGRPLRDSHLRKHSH

T9: Cyk3, Q07533
T9 sequence (Q07533 1-83, looked up): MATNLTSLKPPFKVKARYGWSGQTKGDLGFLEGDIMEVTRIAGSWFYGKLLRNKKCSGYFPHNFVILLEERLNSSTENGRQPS

T10: Fus1, P11710
T10 sequence (P11710 432-512, looked up): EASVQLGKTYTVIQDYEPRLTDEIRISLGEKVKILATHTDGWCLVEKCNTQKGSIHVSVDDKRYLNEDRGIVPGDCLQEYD

T11: Hof1, Q05080
T11 sequence (Q05080 590-669, looked up): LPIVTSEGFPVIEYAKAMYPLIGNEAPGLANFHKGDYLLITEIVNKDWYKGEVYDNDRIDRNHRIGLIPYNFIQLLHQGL

T12: Hse1, P38753
T12 sequence (P38753 208-285, looked up): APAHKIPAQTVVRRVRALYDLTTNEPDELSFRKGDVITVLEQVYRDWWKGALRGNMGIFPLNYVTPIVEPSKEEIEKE

T13: Lsb1, P53281
T13 sequence (P53281 45-122, looked up): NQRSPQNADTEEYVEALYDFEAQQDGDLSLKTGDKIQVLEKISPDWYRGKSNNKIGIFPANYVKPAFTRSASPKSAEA

T14: Lsb3, P43603
T14 sequence (P43603 385-451, looked up): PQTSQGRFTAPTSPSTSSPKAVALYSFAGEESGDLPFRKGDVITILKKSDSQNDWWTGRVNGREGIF

T15: Lsb4, P32793
T15 sequence (P32793 402-468, looked up): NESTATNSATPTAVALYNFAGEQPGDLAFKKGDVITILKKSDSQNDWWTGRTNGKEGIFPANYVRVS

T16: Myo5, Q04439
T16 sequence (Q04439 1072-1160, looked up): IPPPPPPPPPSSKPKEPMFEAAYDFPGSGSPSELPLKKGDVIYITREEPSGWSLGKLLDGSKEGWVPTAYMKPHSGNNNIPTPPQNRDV

T17: Nbp2, Q12163
T17 sequence (Q12163 103-180, looked up): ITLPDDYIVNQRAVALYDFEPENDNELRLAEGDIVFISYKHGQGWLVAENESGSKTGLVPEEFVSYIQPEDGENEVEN

T18: Pex13, P80667
T18 sequence (P80667 295-386, looked up): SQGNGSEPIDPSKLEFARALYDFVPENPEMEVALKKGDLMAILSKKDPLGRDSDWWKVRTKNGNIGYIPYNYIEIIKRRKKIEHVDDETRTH

T19: Pin3, Q06449
T19 sequence (Q06449 53-122, looked up): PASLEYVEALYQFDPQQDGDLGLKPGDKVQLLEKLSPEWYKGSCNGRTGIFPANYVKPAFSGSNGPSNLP

T20: Sla1-2, P32790
T20 sequence (P32790 60-140, looked up): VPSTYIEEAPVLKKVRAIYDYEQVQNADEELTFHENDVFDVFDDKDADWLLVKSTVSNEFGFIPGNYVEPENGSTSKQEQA

T21: Sla1-3, P32790
T21 sequence (P32790 344-424, looked up): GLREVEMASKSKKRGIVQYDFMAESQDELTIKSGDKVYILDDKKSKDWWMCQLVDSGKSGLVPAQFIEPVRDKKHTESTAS


What was measured:
Test in all cases: SPOT array
Abp1, P15891 = target: T1, Abp1, P15891; conditions: median of control spots 935
Bbc1, P47068 = target: T2, Bbc1, P47068; conditions: median of control spots 796
Bem1-1, P29366 = conditions: median of control spots 4282
Sequence of Bem1-1, P29366 (P29366 55-141): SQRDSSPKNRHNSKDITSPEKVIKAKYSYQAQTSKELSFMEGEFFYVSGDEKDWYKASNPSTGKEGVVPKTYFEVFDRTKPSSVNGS

Bem1-2, P29366 = conditions: median of control spots 4347
Sequence of Bem1-2, P29366 (P29366 139-227): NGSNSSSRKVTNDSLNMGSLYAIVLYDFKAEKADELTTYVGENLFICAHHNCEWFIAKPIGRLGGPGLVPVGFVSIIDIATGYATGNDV

Boi1, P38041 = target: T3, Boi1, P38041; conditions: median of control spots 1162
Boi2, P39969 = target: T4, Boi2, P39969; conditions: median of control spots 1161
Bud14, P27637 = target: T5, Bud14, P27637; conditions: median of control spots 956
Bzz1-1, P38822 = target: T6, Bzz1-1, P38822; conditions: median of control spots 4446
Bzz1-2, P38822 = target: T7, Bzz1-2, P38822; conditions: median of control spots 4538
Cdc25, P04821 = target: T8, Cdc25, P04821; conditions: median of control spots 969
Cyk3, Q07533 = target: T9, Cyk3, Q07533; conditions: median of control spots 1451
Fus1, P11710 = target: T10, Fus1, P11710; conditions: median of control spots 1200
GST = conditions: median of control spots 978
Hof1, Q05080 = target: T11, Hof1, Q05080; conditions: median of control spots 4086
Hse1, P38753 = target: T12, Hse1, P38753; conditions: median of control spots 1727
Lsb1, P53281 = target: T13, Lsb1, P53281; conditions: median of control spots 388
Lsb3, P43603 = target: T14, Lsb3, P43603; conditions: median of control spots 406
Lsb4, P32793 = target: T15, Lsb4, P32793; conditions: median of control spots 397
Myo3, P36006 = conditions: median of control spots 468
Myo5, Q04439 = target: T16, Myo5, Q04439; conditions: median of control spots 471
Nbp2, Q12163 = target: T17, Nbp2, Q12163; conditions: median of control spots 357
Pex13, P80667 = target: T18, Pex13, P80667; conditions: median of control spots 1341
Pin3, Q06449 = target: T19, Pin3, Q06449; conditions: median of control spots 2171
Rvs167, P39743 = conditions: median of control spots 2707
Sequence of Rvs167, P39743 (P39743 419-482): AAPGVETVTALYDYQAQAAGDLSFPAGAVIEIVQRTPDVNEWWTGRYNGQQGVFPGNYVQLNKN

Sho1, P40073 = conditions: median of control spots 1148
Sequence of Sho1, P40073 (P40073 287-367): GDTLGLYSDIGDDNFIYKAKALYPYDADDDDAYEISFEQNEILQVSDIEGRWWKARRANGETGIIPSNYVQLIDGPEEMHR

Sla1-2, P32790 = target: T20, Sla1-2, P32790; conditions: median of control spots 712
Sla1-3, P32790 = target: T21, Sla1-3, P32790; conditions: median of control spots 5475

Binder	SPOT intensity (Abp1, P15891)	SPOT intensity (Bbc1, P47068)	SPOT intensity (Bem1-1, P29366)	SPOT intensity (Bem1-2, P29366)	SPOT intensity (Boi1, P38041)	SPOT intensity (Boi2, P39969)	SPOT intensity (Bud14, P27637)	SPOT intensity (Bzz1-1, P38822)	SPOT intensity (Bzz1-2, P38822)	SPOT intensity (Cdc25, P04821)	SPOT intensity (Cyk3, Q07533)	SPOT intensity (Fus1, P11710)	SPOT intensity (GST)	SPOT intensity (Hof1, Q05080)	SPOT intensity (Hse1, P38753)	SPOT intensity (Lsb1, P53281)	SPOT intensity (Lsb3, P43603)	SPOT intensity (Lsb4, P32793)	SPOT intensity (Myo3, P36006)	SPOT intensity (Myo5, Q04439)	other results
NLDRSKISLPDFDDE	23	15	3	0	7	2	20	3	3	35	4	4	36	8	3	84	0	5	1	0	SPOT intensity (Nbp2, Q12163): 6; SPOT intensity (Pex13, P80667): 3; SPOT intensity (Pin3, Q06449): 8; SPOT intensity (Rvs167, P39743): 6; SPOT intensity (Sho1, P40073): 16; SPOT intensity (Sla1-2, P32790): 1; SPOT intensity (Sla1-3, P32790): 2
MARRRLPDRPPNGIG	113	69	0	78	0	0	4	0	160	14	0	0	0	130	126	587	175	533	15	5	SPOT intensity (Nbp2, Q12163): 3; SPOT intensity (Pex13, P80667): 99; SPOT intensity (Pin3, Q06449): 91; SPOT intensity (Rvs167, P39743): 1590; SPOT intensity (Sho1, P40073): 393; SPOT intensity (Sla1-2, P32790): 1; SPOT intensity (Sla1-3, P32790): 36
DAPASKPSVPPRNYF	17	6	0	0	0	0	0	0	0	0	1	0	0	0	0	1310	125	231	0	0	SPOT intensity (Nbp2, Q12163): 2; SPOT intensity (Pex13, P80667): 91; SPOT intensity (Pin3, Q06449): 23; SPOT intensity (Rvs167, P39743): 58; SPOT intensity (Sho1, P40073): 0; SPOT intensity (Sla1-2, P32790): 0; SPOT intensity (Sla1-3, P32790): 12
AIPPPVPNRPGGTTN	7	196	1	1	1	0	2	2	0	0	2	0	0	1	22	948	453	222	8	0	SPOT intensity (Nbp2, Q12163): 1; SPOT intensity (Pex13, P80667): 375; SPOT intensity (Pin3, Q06449): 48; SPOT intensity (Rvs167, P39743): 1430; SPOT intensity (Sho1, P40073): 0; SPOT intensity (Sla1-2, P32790): 0; SPOT intensity (Sla1-3, P32790): 1
GAGERPRLVPRPINV	9	30	3	1	3	0	0	1	0	18	3	0	0	11	7	18	60	105	0	1	SPOT intensity (Nbp2, Q12163): 2; SPOT intensity (Pex13, P80667): 24; SPOT intensity (Pin3, Q06449): 5; SPOT intensity (Rvs167, P39743): 4; SPOT intensity (Sho1, P40073): 4; SPOT intensity (Sla1-2, P32790): 1; SPOT intensity (Sla1-3, P32790): 0
FYNRTAFQLPGDARV	3	0	0	1	0	0	4	2	0	0	0	0	0	0	2	2060	2	0	1	1	SPOT intensity (Nbp2, Q12163): 2; SPOT intensity (Pex13, P80667): 6; SPOT intensity (Pin3, Q06449): 151; SPOT intensity (Rvs167, P39743): 0; SPOT intensity (Sho1, P40073): 4; SPOT intensity (Sla1-2, P32790): 0; SPOT intensity (Sla1-3, P32790): 5

Source: article PMC2756588
